This assay concerns the target LC8 (as used with syn-4mer) ( (S. cerevisiae or D. …, UniProt Q24117 1-89)). Put plainly: ITC.

Sequence of LC8 (as used with syn-4mer) ( (Q24117 whole entry): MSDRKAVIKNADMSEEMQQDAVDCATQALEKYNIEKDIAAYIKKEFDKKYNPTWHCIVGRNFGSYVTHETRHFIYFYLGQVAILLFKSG

B1: synthetic four-site IDP (syn-4mer) (designed binder)
chain: GSYGSRKAIDAATQTEPKETRKAIDAATQTEPKETRKAIDAATQTEPKETRKAIDAATQTEGSYGS
B1 had a Kd of about 40 nM.

What is called Kd is the concentration at which binding is half-saturated. Low values mean higher affinity, high ones lower affinity.

For the origin of these results see paper PMC9050902 (Journal of molecular biology, 2022).
